Source: PMC9585510

Tests used:
[1] = molecular target: Marchantia polymorpha plant cysteine oxidase (MpPCO), with N-terminal His6-tag (Marchantia polymorpha)
[2] = molecular target: MpPCOc, Marchantia polymorpha plant cysteine oxidase with the N-terminal His6-tag removed (Marchantia polymorpha)

KM for the peptide substrate in steady-state kinetics of Nt-Cys oxidation (LC-MS; atmospheric O2, 25 °C, 50 mM bis-tris propane, 50 mM NaCl, 1 mM TCEP, pH 8.0; fitted with substrate inhibition) [1] [μM] | KM for the peptide substrate in steady-state kinetics of Nt-Cys oxidation (LC-MS; atmospheric O2, 25 °C, 50 mM bis-tris propane, 50 mM NaCl, 1 mM TCEP, pH 8.0) [2] [μM] | Molecule
11 |  | AtRAP2(2-15), 14-mer peptide representing the N-terminus of the A. thaliana ERF-VIIs RAP2.2 and RAP2.12
 | 509 | CRMNKRLGKGETGL
